Entries after “also recorded” stand apart in the source; their conditions may differ.
Legend:
VAP-1 [1] = molecular target: T1, VAP-1 (Homo sapiens, UniProt Q16853); settings: computer docking simulations, literature; cited from earlier work
T1 sequence (Q16853 1-763): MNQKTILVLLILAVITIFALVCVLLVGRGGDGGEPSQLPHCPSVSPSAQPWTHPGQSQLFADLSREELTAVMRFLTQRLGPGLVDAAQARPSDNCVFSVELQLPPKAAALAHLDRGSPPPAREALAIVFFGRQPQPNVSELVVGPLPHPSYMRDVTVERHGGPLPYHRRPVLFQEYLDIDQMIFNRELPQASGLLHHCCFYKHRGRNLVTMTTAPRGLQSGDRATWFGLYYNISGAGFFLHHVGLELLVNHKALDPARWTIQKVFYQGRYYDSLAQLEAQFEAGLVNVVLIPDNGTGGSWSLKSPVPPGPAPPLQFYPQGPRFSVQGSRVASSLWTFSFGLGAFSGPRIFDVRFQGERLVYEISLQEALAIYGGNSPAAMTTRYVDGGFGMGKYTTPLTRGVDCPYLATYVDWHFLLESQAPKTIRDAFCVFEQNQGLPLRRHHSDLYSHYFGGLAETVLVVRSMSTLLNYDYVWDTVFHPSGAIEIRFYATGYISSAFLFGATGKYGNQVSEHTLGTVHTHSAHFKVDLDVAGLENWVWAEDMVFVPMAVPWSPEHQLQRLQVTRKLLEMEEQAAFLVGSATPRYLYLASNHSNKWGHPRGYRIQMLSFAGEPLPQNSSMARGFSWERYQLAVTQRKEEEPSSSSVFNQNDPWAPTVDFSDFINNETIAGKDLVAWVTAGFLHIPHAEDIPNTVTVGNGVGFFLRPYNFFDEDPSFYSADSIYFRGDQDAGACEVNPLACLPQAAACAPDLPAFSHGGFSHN

VAP-1 [2] = molecular target: T1, VAP-1; assay: Fluorometric detection of SSAO-mediated H2O2 formation (Amplex Red) with VAP-1 transfected CHO cells; type: biochemical; parameters: The CHO cells stably transfected with the cDNA encoding VAP-1 was used; expressed in transfected cells; host or cells: CHO cells, stably transfected; settings: for inhibition of the activity (VAP-1 SSAO): methylamine substrate
Procedure: Cells. The CHO cells stably transfected with the cDNA encoding VAP-1 was used. The VAP-1 expression level of these cells was confirmed by staining with anti-VAP-1 monoclonal antibodies and subsequent flow cytometric analyses. The VAP-1 transfectants were grown into the confluence, detached, counted and equal numbers were divided to 96 well plates for enzymatic assays.
Fluorometric detection of SSAO-mediated H2O2 formation. Amine oxidase activities were measured using a highly sensitive and stable probe for H2O2 Amplex Red reagent (Molecular Probes Europe BV) as described previously (Salmi et al., 2001). The enzymes were incubated in white microplates in the final volume of 200 μl KRPG containing various concentrations of the tested peptides, 0.8 U/ml horseradish peroxidase, 60 μM Amplex Red reagent, and methylamine as preferred amine substrate for SSAO. Fluorescence intensity of the samples was measured using Tecan ULTRA fluoropolarometer (excitation/emission wavelengths 545/595 nm). To evaluate the amount of H2O2 formed via SSAO-mediated reaction, specific enzyme inhibitor semicarbazide (200 μM) was included in the control well, and these values were subtracted from the total amount of H2O2 formed. To test whether the peptides could interfere with fluorometric H2O2 detection, H2O2 concentrations were calculated from calibration curves generated by serial dilutions of standard H2O2 in the presence of various concentrations of peptides. All calibration curves show linear dependence of the measured fluorescence intensity vs. H2O2 concentration in the presence of peptides in concentrations less than 250 micrograms/ml.

[3] = peptide concentration 10 micrograms/ml
[4] = peptide concentration 100 micrograms/ml

inhibition of the activity (VAP-1 SSAO) (VAP-1 [2]; [3]) [%] | inhibition of the activity (VAP-1 SSAO) (VAP-1 [2]; [4]) [%] | Substance | binding to the active site of VAP-1 in docking (VAP-1 [1]) | VAP-1 inhibiting activity compared with earlier lysine containing peptides (VAP-1 [2]; comparison in words)
– | – | GGGKEGG (VAP-1 targeting peptide) [previously disclosed lysine containing peptide] | bind optimally | –
– | – | GGGKKGG (VAP-1 targeting peptide) [previously disclosed lysine containing peptide] | bind optimally | –
33.5 | 42.8 | GGGGKYGGG (VAP-1 targeting peptide) | – | stronger than that of the previously disclosed lysine containing peptides; also recorded: more potent inhibitor of VAP-1 than GGGGKGGGG
17.4 | 20.3 | GGGGKGGGG (VAP-1 targeting peptide) | bind optimally | –
– | – | GGGKGGG (VAP-1 targeting peptide) [previously disclosed lysine containing peptide] | bind optimally | –

Source: patent publication US20080213176A1, “Compositions for Targeting Amine Oxidases in Vivo” (priority 2005, published 2008)
